This experiment deals with His-tagged mouse Wnt3a (mouse) (UniProt P27467). Kind of experiment: cell-based or functional assay.
Sequence of UniProt P27467 (P27467 19-352): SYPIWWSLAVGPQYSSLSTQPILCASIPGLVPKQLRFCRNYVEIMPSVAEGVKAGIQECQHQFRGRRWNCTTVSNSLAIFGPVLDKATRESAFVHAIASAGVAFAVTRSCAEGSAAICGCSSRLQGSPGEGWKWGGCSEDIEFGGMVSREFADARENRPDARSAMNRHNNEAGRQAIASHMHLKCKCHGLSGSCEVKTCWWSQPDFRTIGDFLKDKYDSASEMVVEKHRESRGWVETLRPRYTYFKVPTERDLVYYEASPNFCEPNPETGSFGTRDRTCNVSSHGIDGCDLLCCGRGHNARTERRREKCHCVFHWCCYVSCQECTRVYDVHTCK

Consider “human V3Nter (from UniProt P39060 24-497)”, for which the decrease in Wnt3a-induced CRT (beta-catenin-TCF-regulated transcription), TCF-responsive reporter in HEK293T and Huh-7 cells is > 80%.
For “human FZC18 (from UniProt P39060 216-450)”, the decrease in Wnt3a-induced CRT (beta-catenin-TCF-regulated transcription), TCF-responsive reporter in HEK293T and Huh-7 cells is > 80%.
